Measurements taken from the DeepSol protein solubility set.

assay: soluble on expression in E. coli; label from the status in PepcDB or PDB records

Sequence	soluble on expression in E. coli
MAQFTEEEKTIRRIEKRFNKGMVQYGLIEEGDKVLVGLSGGKDSLALVELLGKRSHIFKPRFSVVAVHVVMKNIPYQSDWDYLREHAEKNGVPLVVYETSFDPSTDTRKSPCFLCSWNRRKALFTVAKEQGCNKIALGHHMDDILETLLMNITYQGAFSTMPPRLVMNKFDMTIIRPMCLVHEADLLELAQIRGYRKQVKNCPYESQSSRSDMKGILRQLEKMNPEARYSLWGSMTNVQEELLPKEVEF	not soluble
MKGGAGVPDLPSLDASGVRLAIVASSWHGKICDALLDGARKVAAGCGLDDPTVVRVLGAIEIPVVAQELARNHDAVVALGVVIRGQTPHFDYVCDAVTQGLTRVSLDSSTPIANGVLTTNTEEQALDRAGLPTSAEDKGAQATVAALATALTLRELRAHS	soluble
MGSDKIHHHHHHMFSLFETFIVVYETKSFTLAGKYLFISQPTVTVRIKKLEEELKSTLFLRGKHQEIIPTEAAILFYPKAIAYLKKWEEDQAEVQKKSLAKHPFKIGVSHSAALSIMPGIFKVFEGELEHLDVEINMYDSEKVFELVANHDLHFGIIERLLISDQTETFPLFLDELVLAGNTDSETFFTRESGSGIGYYIKRYLKSAPSAQRNIVRMNSNEMIISHIKAGLGSSLISKSFLTDDIPYQELGSNYHREFLGVSFDEEKDPMIQKLISKIKKETEIH	not soluble
MGSDKIHHHHHHMSTDNYYIRRRLLSSLTAHLDQPEITVLVGPRQSGKTTILKRLESELRAGGRKTLWLNLDFEDDFRHVASEGALLQKIQLELGSGGGVVFIDEIQRRENAGLFLKGLYDQGLPWKFVVSGSGSIELKEKISESLVGRKRLFELSTVSFGEFADFRTGYRYTDRLRDYFRTEPSKTDQLFREYLMYGGYPRVVLADTHQEKMATINEIFRSYLEKDIVYLLRVEKSESFSNLVRVLATQSGKMVSYSELSATLGLSLATVKLYLWYLEKTYIIDKVTPWYTNIRKEITKAPVYYFRDIGLRNFAAGSFGALSDSEAGFAFQNVIHAMLKERFPLADSTIHYWRTKDKAEVDFVLRSGDTVTPLEVKYRDMKKLDVRRSFLGFLTRYHPEFGYIVNRNYSDEALICQTRVRCLPYWELMFEEAFP	not soluble
MKNYKKYYIIPAPPEEVYLALTVPTTLLLWTGEEAVMSTEPESEFSLWGGSIEGRNIEFIEGKKIVQQWYFGDQEEPSIVTIILHPDKQDSTSAELRHTNIPDEAYEDMVEGWNGAYFGALQEFYEDEELEHHHHHH	soluble
MAHHHHHHMSATRDGSRSHSDGGFDGRSLLSEQTKLLRESTPADINFIQFLKLRLSAQQRATAQRNYWQRVQREAADSMNANTAHRQGRGGISASVAPVSTSAAGRESEASSNHIGSGRRNWHAAGSAEGASFSTYDAEHMMLEHSTASFGTLSKQDAFTRATSHGAVPPPTVHQHSFEDLRAAVLKRRSTPASELTDFVAVSTAELSEDGNSSQRRPSGPLQEEDAYALAPFIASSYSAAAAAAIDERPAMACGKPQVPVDVDEMKDVALEPCPHCGRTFAPARLERHVVTCERHRNTLPKTKGDMKSCRAFSSRKKPDRTAGGDGAAASAAATANTAGAAPGGPLRWSTDTAIKPEKWRKQSAQLRNAMAGASVAVDDDRVLCPSCGRHFSDDVAARHIPICKSKGGRAA	not soluble
RPIGIYEKATPTHCTWLERLNFAKELGFDFVEMSIDERDERLARLDWSKEERLEVVKAIYETGVRIPSICFSGHRRYPLGSKDPVLEEKSLELMKKCIELAQDLGVRTIQLAGYDVYYEEKSPQTRQRFIKNLRKACDWAEEAQVVLAIEIMDDPFISSIEKYLAIEKEIDSPFLFVYPDIGNVSAWHNDIYSEFYLGHHAIAALHLKDTYAVTESSKGQFRDVPFGQGCVKWEEAFDILKETNYNGPFLIEMWSENCETVEETRAAIQEAQAFLYPLIKKAGLM	not soluble
MINLPAEGHVNPTLSLVKAFTERGDHVHYITTEHFKGRIEDLGATVYTHPDLLKDISIDTETSYGLNSFFHVHVQTSLYILEITKQLCESINFDFVIYDIFGAGELVKEYLQIPGIVSSPIFLIPTEFLETLPFHPNAEIPFQPDEISEQLLYRMEHEFGVKPKNNLQFMHNKGDITLVYTSRYFQPNSDLFGENNIFIGPSISKRKTNVEFPLELLKGKKVIYISMGTLLEGLEPFFNTCIDTFSDFKGVVVMAIGDRNDRSKIKKAPDNFIIASYVLQSEILNEADVFITHGGMNSVHDAIYFNVPFVIIPHDKDQPMIAQRLTELEAAHRLLKEHVNVQSLKEAVTDVLLNEKYKHGIRKLKDSFLQCGGAKEAISVIKSLLNK	not soluble
MALKLKLKMPSSSASNSPQPPPPESHSPEQPKLPKLKIKAPSKTPVSSTPDSSMALKRPQEEQSTGENPKKLKLSLSKTKENGRPKGLPRVRIKPTRIPGEGYDSEAPDLEDDPLIEQGIIIRFLNDSNLDFVHNAVDSGDLTGLNVKWVTKEKAIVNVNSILYSARLIDLPTVTEIFKTVDRKNVFKTLDICQILLVLHVVDPAKLNIDTDFEVPEEFLFNHPFYKYVKNNEIKKKRMVLKDGLLQPFQDVYRRFRPTKVDHRVILDIESKVDELIKLDNEADESHFELLDSKTAQQSRFGTSATPSAVNSPVAMRMEGPEVEPGRFSNVQDHENEEDDEEEDEEDYDDDDLQDDDMELHLEQELEKVLDGELSESEVTIPTSMAGILTNDVGNGISIMTNGEQSEDIDGDEQDDEEEEEEEEEDGDDEEEEEEEEEEENEEGDSESGKQHVKLLEEEIFELEKAVAHHQKNLSTASSKMLRMKFQNTYTSLKASLDSKKRDLAKLLDEQEQQQEQKQPKTTVDEKSQEAEHSVEAEAEIEAQVEADAEDGDEDEDIDQGDDMNQENNNNNGDSDIDEDNADDLDDLF	not soluble
MENSGHKVYYCMGSPLFALNAGRMENNLVAFSGGLSINKQLQKEGKPGINVSPSFINENNPDTIFISGFLSRPLDEFYTLCRQYGIETDAVKQQRVYEVPPSWDFGNPRWILGLMYIADKLYPGNSGIDLEKEADEFYRQFYGMPYLEHHHHHH	soluble
VYGDIWGFETDRYFTKDDFNADGSYKEGIASQKKLEQDGFVYGPGDIKFKDLNNDKEINGGEGTVKDHGDLKVIGNTTPRYQYGFRLGGEWKGIDIDMFFQGVGKCDAWTQSAFVMPMMRGADAIYANQANYWTDENPDPNADFPRMWPGNAGKGTVSVLDLGNHNFYPQSKYLVNMAYLRFKNLTIGYTLPKDWTRKVYMDKVRVYFSANNICELINKSNAPVDPEVNTSEAIANGGSSDYGNGTWGRVDPMYRTVSFGLQVTF	not soluble
MDVKLLAHTQLSEEFVNYLSVVFGIGDEGFDPTHGQVVALSAIRTCYSPNKPSRIVSLEGEKYFKGKATDGKGGKEVDRLIRHIVGSGHASTLEHLTYTFAVEGVSRALLAQLTRHRVGFSYSVQSQRYVRMGSNDKIGGFDYVVPETVKAKGEQVVNAYNEMMYKLQSGYDLLRTLGIPAEDARSVLPNAAATNLVLTVNLRGLLDFYNKRRKGKGAQAEIAELAEQLRQEVVKVEKWVDEFFWKWKVTEV	not soluble
EVQLQESGPSLVKPSQTLSLTCSVTGDSVTSDFWSWIRKFPGNKLEYMGYISYSGSTYYHPSLKSRISITRDTSKNQYYLQLNSVTTEDTATYYCASWGGDVWGAGTTVTVSSAKTTAPSVYPLAPVCGDTTGSSVTLGCLVKGYFPEPVTLTWNSGSLSSGVHTFPAVLQSDLYTLSSSVTVTSSTWPSQSITCNVAHPASSTKVDKKI	soluble
PTVLAVTDEELTIRFVSPAIERVLGYDMESLVGTNWLDLVHPADTDRVLATLTGEREDDGTEYRFRNADGDWVWLETIVSSDTE	not soluble
MAHHHHHHMRNLSDQFPVEDSPMNARRQMANGDDHSQRDSPMNHDVAHTYEGNTLDGHLTKAESASMTKTPTAAANGACANSAPSEYVVAKERLEAARAAHKQRLREIKDDKSLKIKSMPSLEELRDERVRLSEQVLHHKDEQDSLALDIEGLEGAAEVYQLAARVQRLEHFANRAYEYAEETLPRDIERTLEEDRQLSNRELCAYIQELQSKRANTLKKVVASQEGMVKRNLRKGATATTAALGEDADPMEAKAVAHTQENKDECVVLHQKIRRFCAMRTKLQSDILKEKSASKKMEERMCAAIRTAELANARDARMCGELNNRNAAATTNSQLLIDQLNVGHYGLGNAPSTKQLLEDRKAREALLETTETDQQQYGRFVSSGSLGSRQSYANSQSSHQRAIKPPLVASKPTAAQRARDDASRSSREEFAQMLRRNSDGNSYQASRSQSLSKPPLVASKPTASQQSRETALRGEREEVSVSRTVARSNSLFSDVRPPSLAAKSTASQRSRDRQ	not soluble
MDELLKAIKTKIAEMKKIELTGFTNTETATAYFQEKEAILEGIVKTLETITVQETSEVEALKSTVKSLREEIKGQAKSPRELSRRELLYNLGKGIAAAWSGNHKVLADLAFSPNLKSDNWTNPKDVSWGERGWTVSKAALGEPMGNMSPNNEQFLINPIYETEIMSDVAKKSVMMSLVRHRPMLGPSIFLPTRDRGGVQLNWLTAYGQKIEGSKPKGAERVELKAYTLAGFIPWFDEFEEDVFVDLGAMFIDEFIETYGQEFDRQCLLADDDPFTGAMACADVTEVTIKGDTIDDLTWKDFRDAVYKVPAEERKDCSWFLNETVLNHIANIEDTTGRPIWRRPTEAMPGRLDLYPYHEVSILPQIADIGENQAFAVFMNPKRIQHGNRRGIELKKFDGTTESLEYGELFLRFRKRDGFLVPDRKTTWSSLGHN	not soluble
HQYFFAKLQEQQNRYAKYGETAYNLEPNIKNGPGGLRDLQILLSISKRHFKIKKLAEGIGYGFITDKEYEELKYCQNFLWRVRFALHMLAGKPEERLSFDYQVKLAQFFGYQDQSHILAIEQFMKDYFKVIKRNRELNEMLLQWFNETIVYHQKQKIIRLDDEFQLSNRFIEVRNNRVFKQNPQSILKLFYWLVKRPDIEGVRASTIRLI	not soluble
MGSDKIHHHHHHMKHTQISRREFLKNIGMTGAGVLLAASPWLSAFSEAVNTSNEKCRLGVIGPGSRGRFLMSFLVQNPKVDIVALCDIYQPSIDEALKLAPKAKVYGDYRELLENNNIDAILVATPLSSHCKIVMDAFDAGKHVFCEKTIGFTMEECFRMYNKHRSTGKIFFTGQQRLFDPRYIKAMEMIHAGTFGEINAIRTFWYRNGDWRRPVPSANLERQINWRLYKEYSKGLMTELACHQLQIGSWALNKLPEKVMGHGAITYWKDGREVYDNVSCLYVFDDGVKMTFDSVISNQFYGLEEQIMGNLGTVEPEKGKYYFESIPPAPGFLQMINDWENKLFDTLPFAGTSWAPETANENKGELILGERPKSDGTSLLLEAFVEAVITRKQPARIAEEGYYASMLCLLGHQALQEEKTLYFPDEYKINYLNHQSKTSEAV	not soluble
MGSDKIHHHHHHMKSKIYILLLFLIFLSACANTRHSESDKNVLTVYSPYQSNLIRPILNEFEKQEHVKIEIKHGSTQVLLSNLHNEDFSERGDVFMGGVLSETIDHPEDFVPYQDTSVTQQLEDYRSNNKYVTSFLLMPTVIVVNSDLQGDIKIRGYQDLLQPILKGKIAYSNPNTTTTGYQHMRAIYSMHHRVSDVHQFQNHAMQLSKTSKVIEDVAKGKYYAGLSYEQDARTWKNKGYPVSIVYPIEGTMLNVDGIALVKNAHPHPKRKKLVQYLTSRSVQQRLVAEFDAKSIRKDVSEQSDQSIENLKNIPLIPKSKLPDIPHHKFLEMIQ	not soluble
MSKTHLTEQKFSDFALHPKVVEALEKKGFHNCTPIQALALPLTLAGRDVAGQAQTGTGKTMAFLTSTFHYLLSHPAIADRKVNQPRALIMAPTRELAVQIHADAEPLAEATGLKLGLAYGGDGYDKQLKVLESGVDILIGTTGRLIDYAKQNHINLGAIQVVVLDEADRMYDLGFIKDIRWLFRRMPPANQRLNMLFSATLSYRVRELAFEQMNNAEYIEVEPEQKTGHRIKEELFYPSNEEKMRLLQTLIEEEWPDRAIIFANTKHRCEEIWGHLAADGHRVGLLTGDVAQKKRLRILDEFTRGDLDILVATDVAARGLHIPAVTHVFNYDLPDDCEDYVHRIGRTGRAGASGHSISLACEEYALNLPAIETYIGHSIPVSKYNPDALMTDLPKPLRLTRPRTGNGPRRTGAPRNRRRSG	soluble
